Data reported in patent publication US20160272683A1 (Novo Nordisk, published 2016).
Numbered stars: 1 amine (or outer) side, 2 acyl side, 3 side chain; on linkers, the order of the positions; unused ones are H or OH. * marks the point of attachment. C20 diacid = O=C(O)CCCCCCCCCCCCCCCCCCC(=O)*; C18 diacid = O=C(O)CCCCCCCCCCCCCCCCC(=O)*; C16 diacid = O=C(O)CCCCCCCCCCCCCCC(=O)*; γGlu = O=C(O)[C@H](CCC(=O)[*:2])N[*:1]; C14 diacid = O=C(O)CCCCCCCCCCCCC(=O)*; C12 diacid = O=C(O)CCCCCCCCCCC(=O)*; Palmitoyl = CCCCCCCCCCCCCCCC(=O)*; AEEA = NCCOCCOCC(=O)O

T1: human calcitonin receptor (human, UniProt P30988 25-474)
T1 construct: whole, on cells; also called hCT-R; hCTR
T1 sequence (looked up): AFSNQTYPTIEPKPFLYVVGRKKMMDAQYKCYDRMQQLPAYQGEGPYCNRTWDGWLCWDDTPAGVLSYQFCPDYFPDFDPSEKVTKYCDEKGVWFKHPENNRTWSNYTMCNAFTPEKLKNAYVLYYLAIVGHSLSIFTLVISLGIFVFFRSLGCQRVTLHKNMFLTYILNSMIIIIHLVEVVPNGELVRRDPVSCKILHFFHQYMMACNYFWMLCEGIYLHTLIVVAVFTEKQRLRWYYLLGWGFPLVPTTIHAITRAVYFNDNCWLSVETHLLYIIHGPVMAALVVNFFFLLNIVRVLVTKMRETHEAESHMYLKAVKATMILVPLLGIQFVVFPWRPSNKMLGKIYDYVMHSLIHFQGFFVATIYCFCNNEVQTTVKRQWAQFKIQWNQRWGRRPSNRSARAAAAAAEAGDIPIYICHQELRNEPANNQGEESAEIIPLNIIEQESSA


molecular target: T1, human calcitonin receptor; test: whole-cell competition vs 125I-human calcitonin (Assay VIIa)
In short: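 BHK tk'ts 13 cells stably co-expressing human calcitonin receptor and a CRE-luciferase reporter, seeded overnight at 37 °C. Bound tracer counted by scintillation after cold HBSS washes and NaOH/SDS lysis; IC₅₀ from one-site competition fit taken as receptor affinity.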

IC50	Binder
0.188 nM	{C20 diacid}-EASELSTAALGRLSAELHELATLPRTETGSGSP-NH2 (also called Ex. #22) [[N-terminal(C20 diacid), 30S, 31G]mimylin]
2.54 nM	{C20 diacid-γGlu}-AASELSTAALGRLSAELHELATYPRTETGSGSP-NH2 (SMILES CC(C)C[C@H](NC(=O)[C@H](C)NC(=O)[C@H](C)NC(=O)[C@@H](NC(=O)[C@H](CO)NC(=O)[C@H](CC(C)C)NC(=O)[C@H](CCC(=O)O)NC(=O)[C@H](CO)NC(=O)[C@H](C)NC(=O)[C@H](C)NC(=O)CC[C@H](NC(=O)CCCCCCCCCCCCCCCCCCC(=O)O)C(=O)O)[C@@H](C)O)C(=O)NCC(=O)N[C@@H](CCCNC(=N)N)C(=O)N[C@@H](CC(C)C)C(=O)N[C@@H](CO)C(=O)N[C@@H](C)C(=O)N[C@@H](CCC(=O)O)C(=O)N[C@@H](CC(C)C)C(=O)N[C@@H](Cc1c[nH]cn1)C(=O)N[C@@H](CCC(=O)O)C(=O)N[C@@H](CC(C)C)C(=O)N[C@@H](C)C(=O)N[C@H](C(=O)N[C@@H](Cc1ccc(O)cc1)C(=O)N1CCC[C@H]1C(=O)N[C@@H](CCCNC(=N)N)C(=O)N[C@H](C(=O)N[C@@H](CCC(=O)O)C(=O)N[C@H](C(=O)NCC(=O)N[C@@H](CO)C(=O)NCC(=O)N[C@@H](CO)C(=O)N1CCC[C@H]1C(N)=O)[C@@H](C)O)[C@@H](C)O)[C@@H](C)O, also called Ex. #57) [[N-terminal(C20 diacid-gGlu), 1A, 23Y, 30S, 31G]mimylin]
2.27 nM	{C20 diacid-γGlu}-EASELSTAALGRLSAELHELATYPRTETGSGSP-NH2 (SMILES CC(C)C[C@H](NC(=O)[C@H](C)NC(=O)[C@H](C)NC(=O)[C@@H](NC(=O)[C@H](CO)NC(=O)[C@H](CC(C)C)NC(=O)[C@H](CCC(=O)O)NC(=O)[C@H](CO)NC(=O)[C@H](C)NC(=O)[C@H](CCC(=O)O)NC(=O)CC[C@H](NC(=O)CCCCCCCCCCCCCCCCCCC(=O)O)C(=O)O)[C@@H](C)O)C(=O)NCC(=O)N[C@@H](CCCNC(=N)N)C(=O)N[C@@H](CC(C)C)C(=O)N[C@@H](CO)C(=O)N[C@@H](C)C(=O)N[C@@H](CCC(=O)O)C(=O)N[C@@H](CC(C)C)C(=O)N[C@@H](Cc1c[nH]cn1)C(=O)N[C@@H](CCC(=O)O)C(=O)N[C@@H](CC(C)C)C(=O)N[C@@H](C)C(=O)N[C@H](C(=O)N[C@@H](Cc1ccc(O)cc1)C(=O)N1CCC[C@H]1C(=O)N[C@@H](CCCNC(=N)N)C(=O)N[C@H](C(=O)N[C@@H](CCC(=O)O)C(=O)N[C@H](C(=O)NCC(=O)N[C@@H](CO)C(=O)NCC(=O)N[C@@H](CO)C(=O)N1CCC[C@H]1C(N)=O)[C@@H](C)O)[C@@H](C)O)[C@@H](C)O, also called Ex. #34) [[N-terminal(C20 diacid-gGlu), 23Y, 30S, 31G]mimylin]
0.798 nM	{C18 diacid}-EASELSTAALGRLSAELHELATLPRTETGPESP-NH2 (SMILES CC(C)C[C@H](NC(=O)[C@H](C)NC(=O)[C@H](C)NC(=O)[C@@H](NC(=O)[C@H](CO)NC(=O)[C@H](CC(C)C)NC(=O)[C@H](CCC(=O)O)NC(=O)[C@H](CO)NC(=O)[C@H](C)NC(=O)[C@H](CCC(=O)O)NC(=O)CCCCCCCCCCCCCCCCC(=O)O)[C@@H](C)O)C(=O)NCC(=O)N[C@@H](CCCNC(=N)N)C(=O)N[C@@H](CC(C)C)C(=O)N[C@@H](CO)C(=O)N[C@@H](C)C(=O)N[C@@H](CCC(=O)O)C(=O)N[C@@H](CC(C)C)C(=O)N[C@@H](Cc1c[nH]cn1)C(=O)N[C@@H](CCC(=O)O)C(=O)N[C@@H](CC(C)C)C(=O)N[C@@H](C)C(=O)N[C@H](C(=O)N[C@@H](CC(C)C)C(=O)N1CCC[C@H]1C(=O)N[C@@H](CCCNC(=N)N)C(=O)N[C@H](C(=O)N[C@@H](CCC(=O)O)C(=O)N[C@H](C(=O)NCC(=O)N1CCC[C@H]1C(=O)N[C@@H](CCC(=O)O)C(=O)N[C@@H](CO)C(=O)N1CCC[C@H]1C(N)=O)[C@@H](C)O)[C@@H](C)O)[C@@H](C)O, also called Ex. #2) [[N-terminal(C18 diacid)]mimylin]
0.413 nM	{C16 diacid}-EASELSTAALGRLSAELHELATLPRTETGPESP-NH2 (also called Ex. #3) [[N-terminal(C16 diacid)]mimylin]
1.05 nM	{C14 diacid}-EASELSTAALGRLSAELHELATLPRTETGPESP-NH2 (also called Ex. #4) [[N-terminal(C14 diacid)]mimylin]
6.51 nM	{C14 diacid-γGlu-γGlu-AEEA-AEEA-AEEA-AEEA}-EASELSTAALGRLSAELHELATLPRTETGPESP-NH2 (also called Ex. #5) [[N-terminal(C14 diacid-2xgGlu-4xOEG)]mimylin]
5.68 nM	{C12 diacid}-EASELSTAALGRLSAELHELATLPRTETGPESP-NH2 (also called Ex. #6) [[N-terminal(C12 diacid)]mimylin]
0.834 nM	Palmitoyl-EASELSTAALGRLSAELHELATLPRTETGPESP-NH2 (also called Ex. #7) [[N-terminal(C16)]mimylin]
0.352 nM	{C20 diacid-γGlu-AEEA-AEEA-AEEA}-ASELSTAALGRLSAELHELATLPRTETGSGSP-NH2 (also called Ex. #43) [[N-terminal(C20 diacid-gGlu-3xOEG), des1, 30S, 31G]mimylin]
0.515 nM	{C14 diacid-γGlu}-ASELSTAALGRLSAELHELATLPRTETGPESP-NH2 (also called Ex. #19) [[N-terminal(C14 diacid-gGlu), des1]mimylin]
0.59 nM	{C18 diacid-γGlu}-ASQLSTAALGRLSAQLHELATLPRTETGSGSP-NH2 (SMILES CC(C)C[C@H](NC(=O)[C@H](C)NC(=O)[C@H](C)NC(=O)[C@@H](NC(=O)[C@H](CO)NC(=O)[C@H](CC(C)C)NC(=O)[C@H](CCC(N)=O)NC(=O)[C@H](CO)NC(=O)[C@H](C)NC(=O)CC[C@H](NC(=O)CCCCCCCCCCCCCCCCC(=O)O)C(=O)O)[C@@H](C)O)C(=O)NCC(=O)N[C@@H](CCCNC(=N)N)C(=O)N[C@@H](CC(C)C)C(=O)N[C@@H](CO)C(=O)N[C@@H](C)C(=O)N[C@@H](CCC(N)=O)C(=O)N[C@@H](CC(C)C)C(=O)N[C@@H](Cc1c[nH]cn1)C(=O)N[C@@H](CCC(=O)O)C(=O)N[C@@H](CC(C)C)C(=O)N[C@@H](C)C(=O)N[C@H](C(=O)N[C@@H](CC(C)C)C(=O)N1CCC[C@H]1C(=O)N[C@@H](CCCNC(=N)N)C(=O)N[C@H](C(=O)N[C@@H](CCC(=O)O)C(=O)N[C@H](C(=O)NCC(=O)N[C@@H](CO)C(=O)NCC(=O)N[C@@H](CO)C(=O)N1CCC[C@H]1C(N)=O)[C@@H](C)O)[C@@H](C)O)[C@@H](C)O, also called Ex. #87) [[N-terminal(C18 diacid-gGlu), des1, 4Q, 16Q, 30S, 31G]mimylin]
0.605 nM	{C18 diacid-γGlu}-ASQLSTAALGRLSAELHELATLPRTETGSGSP-NH2 (SMILES CC(C)C[C@H](NC(=O)[C@H](C)NC(=O)[C@H](C)NC(=O)[C@@H](NC(=O)[C@H](CO)NC(=O)[C@H](CC(C)C)NC(=O)[C@H](CCC(N)=O)NC(=O)[C@H](CO)NC(=O)[C@H](C)NC(=O)CC[C@H](NC(=O)CCCCCCCCCCCCCCCCC(=O)O)C(=O)O)[C@@H](C)O)C(=O)NCC(=O)N[C@@H](CCCNC(=N)N)C(=O)N[C@@H](CC(C)C)C(=O)N[C@@H](CO)C(=O)N[C@@H](C)C(=O)N[C@@H](CCC(=O)O)C(=O)N[C@@H](CC(C)C)C(=O)N[C@@H](Cc1c[nH]cn1)C(=O)N[C@@H](CCC(=O)O)C(=O)N[C@@H](CC(C)C)C(=O)N[C@@H](C)C(=O)N[C@H](C(=O)N[C@@H](CC(C)C)C(=O)N1CCC[C@H]1C(=O)N[C@@H](CCCNC(=N)N)C(=O)N[C@H](C(=O)N[C@@H](CCC(=O)O)C(=O)N[C@H](C(=O)NCC(=O)N[C@@H](CO)C(=O)NCC(=O)N[C@@H](CO)C(=O)N1CCC[C@H]1C(N)=O)[C@@H](C)O)[C@@H](C)O)[C@@H](C)O, also called Ex. #78) [[N-terminal(C18 diacid-gGlu), des1, 4Q, 30S, 31G]mimylin]
1.24 nM	{C18 diacid-γGlu}-ASEVSTAVVGRLSAELHEVATLPRTETGSGSP-NH2 (SMILES CC(C)C[C@H](NC(=O)[C@H](CCCNC(=N)N)NC(=O)CNC(=O)[C@@H](NC(=O)[C@@H](NC(=O)[C@H](C)NC(=O)[C@@H](NC(=O)[C@H](CO)NC(=O)[C@@H](NC(=O)[C@H](CCC(=O)O)NC(=O)[C@H](CO)NC(=O)[C@H](C)NC(=O)CC[C@H](NC(=O)CCCCCCCCCCCCCCCCC(=O)O)C(=O)O)C(C)C)[C@@H](C)O)C(C)C)C(C)C)C(=O)N[C@@H](CO)C(=O)N[C@@H](C)C(=O)N[C@@H](CCC(=O)O)C(=O)N[C@@H](CC(C)C)C(=O)N[C@@H](Cc1c[nH]cn1)C(=O)N[C@@H](CCC(=O)O)C(=O)N[C@H](C(=O)N[C@@H](C)C(=O)N[C@H](C(=O)N[C@@H](CC(C)C)C(=O)N1CCC[C@H]1C(=O)N[C@@H](CCCNC(=N)N)C(=O)N[C@H](C(=O)N[C@@H](CCC(=O)O)C(=O)N[C@H](C(=O)NCC(=O)N[C@@H](CO)C(=O)NCC(=O)N[C@@H](CO)C(=O)N1CCC[C@H]1C(N)=O)[C@@H](C)O)[C@@H](C)O)[C@@H](C)O)C(C)C) [[N-terminal(C18 diacid-gGlu), des1, 5V, 9V, 10V, 20V, 30S, 31G]mimylin]
